This assay has as its target microtubules (pig brain tubulin) (pig, UniProt P02550 1-451; Q767L7 1-444, Cy3 or Cy5 and biotin labels on a fraction of the tubulin | Cy3 or Cy5 and biotin labels on a fraction of the tubulin).

Sequence of microtubules (pig brain tubulin) (P02550 other isoform, or with tags, fused parts or gaps, chain 1 of 2): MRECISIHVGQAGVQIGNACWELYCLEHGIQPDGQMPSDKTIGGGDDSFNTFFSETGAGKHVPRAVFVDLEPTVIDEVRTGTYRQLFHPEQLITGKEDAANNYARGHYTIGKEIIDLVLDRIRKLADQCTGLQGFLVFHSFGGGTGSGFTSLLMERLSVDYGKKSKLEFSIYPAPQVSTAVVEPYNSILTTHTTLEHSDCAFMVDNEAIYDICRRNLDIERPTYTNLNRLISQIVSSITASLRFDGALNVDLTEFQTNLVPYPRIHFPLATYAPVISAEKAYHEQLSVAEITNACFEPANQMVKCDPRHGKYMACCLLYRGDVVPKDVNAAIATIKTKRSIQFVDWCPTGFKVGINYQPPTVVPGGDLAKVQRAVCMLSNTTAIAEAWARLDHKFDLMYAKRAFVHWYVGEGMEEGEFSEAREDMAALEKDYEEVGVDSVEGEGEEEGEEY
Sequence of microtubules (pig brain tubulin) (Q767L7 other isoform, or with tags, fused parts or gaps, chain 2 of 2): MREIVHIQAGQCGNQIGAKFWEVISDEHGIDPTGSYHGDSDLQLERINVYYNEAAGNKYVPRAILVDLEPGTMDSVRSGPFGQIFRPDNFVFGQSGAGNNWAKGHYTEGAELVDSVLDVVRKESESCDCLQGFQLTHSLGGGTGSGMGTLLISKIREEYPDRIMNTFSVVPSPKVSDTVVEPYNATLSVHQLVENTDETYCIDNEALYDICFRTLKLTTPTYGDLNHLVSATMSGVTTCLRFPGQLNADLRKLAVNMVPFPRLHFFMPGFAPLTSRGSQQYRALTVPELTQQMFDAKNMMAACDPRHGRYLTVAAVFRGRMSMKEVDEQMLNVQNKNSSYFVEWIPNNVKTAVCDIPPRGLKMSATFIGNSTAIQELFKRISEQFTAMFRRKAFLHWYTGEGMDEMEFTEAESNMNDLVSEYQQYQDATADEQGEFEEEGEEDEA

B1: NuMA Bonsai (other)
chain: MTLHATRGAALLSWVNSLHVADPVEAVLQLQDCSIFIKIIDRIHGTEEGQQILKQPVSERLDFVCSFLQKNRKHPSSPECLVSAQKVLEGSELELAKMTMLLLYHSTMSSKSPRDWEQFEYKIQAELAVILKFVLDHEDGLNLNEDLENFLQKAPVPSTCSSTFPEELSPPSHQAKREIRFLELQKVASSSSGNNFLSGSPASPMGDILQTPQFQMRRLKKQLADERSNRDELELELAENRKLLTEKDAQIAMMQQRIDRLALLNEKQAASPLEPKELEELRDKNESLTMRLHETLKQCQDLKTEKSQMDRKINQLSEENGDLSFKLREFASHLQQLQDALNELTEEHSKATQEWLEKQAQLEKELSAALQDKKCLEEKNEILQGKLSQLEEHLSQLQDNPPQEKGEVLGDVLQLETLKQEAATLAANNTQLQARVEMLETERGQQEAKLLAERGHFEEEKQQLSSLITDLQSSISNLSQAKEELEQASQAHGARLTAQVASLTSELTTLNATIQQQDQELAGLKQQAKEKQAQLAQTLQQQEQASQGLRHQVEQLSSSLKQKEQQLKEVAEKQEATRQDHAQQLATAAEEREASLRERDAALKQLEALEKEKAAKLEILQQQLQVANEARDSAQTSVTQAQREKAELSRKVEELQACVETARQEQHEAQAQVAELELQLRSEQQKATEKERVAQEKDQLQEQLQFQVATDALKSREPQAKPQLDLSIDSLDLSCEEGTPLSITSKLPRTQPDGTSVPGEPASPISQRLPPKVESLESLYFTPIPARSQAPLESSLDSLGDVFLDSGRKTRSARRRTTQIINITMTKKLDVEEPDSANSSFYSTRSAPASQASLRATSSTQSLARLGSPDYGNSALLSLPGYRPTTRSSARRSQAGVSSGAPPGRNSFYMGTCQDEPEQLDDWNRIAELQQRNRVCPPHLKTCYPLESRPSLSLGTITDEEMKTGDPQETLRRASMQPIQIAEGTGITTRQQRKRVSLEPHQGPGTPESKKATSCFPRPMTPRDRHEGRKQSTTEAQKKAAPASTKQADRRQSMAFSILNTPKKLGNSLLRRGASKKALSKASPNTRSGTRRSPRIATTTASAATAAAIGATPRAKGKAKH
For B1, binding was characterised by a dissociation constant (Kd) of 279 nM.

By Kd is commonly meant the concentration at which binding is half-saturated. A low value points to a tighter complex.

These data come from doi:10.1101/2024.11.26.625568 (2024).
